# Measurements from patent publication US20250289893A1 (OXFORD UNIVERSITY INNOVATION, published 2025).
# B1: 116 (VR12117) (antibody, V domains shown)
# VH: QSVEESGGRLVTPGTPLTLTCTVSGFSLSNYAMSWVRQAPGKGLEWIGIIYTTGFTYYASWVKGRFTISKTSTTVDLKITSPTTEDTATYFCARGLATYVSPPTRLDLWGQGTLVTVSS
# VL: AQVLTQTPSPVSAAVGGTVTINCQASQSIYNSKNLAWYQQKPGQPPKLLIYSASTLASGVPSRFKGSGSGTQFTLTISDLECDDAATYYCQGEFSCSSVDCATFGGGTEVVVK
# notes: also called OX116
# Key:
# [1] = target: T1, human CD1a expressed on cells (human, UniProt P06126 17-327; P61769 21-119); assay: flow cytometry, C1R cells, 1 µg/ml antibody
# T1 construct: also called HEK - CD1a; C1R - CD1a
# Description: (§1) Binding to proteins expressed on HEK, C1R and MOLT4 cell lines was assessed. […] The C1R-CD1a, C1R-empty vector and MOLT4 cell lines were washed in 1×PBS on the day required. All cell lines were counted and resuspended in 1×PBS and then stained for 30 minutes at 37° C. using the DiI or DiO cellular stains (Invitrogen). Cells were washed with flow cytometry buffer (1% bovine serum albumin, 2 mM EDTA and 0.1% sodium azide in PBS) before mixing 2 DiI-stained and DiO-stained populations together. The cells (20 μl/well) were then added to dilutions of antibody sample (B cell culture supernatant, TAP supernatant, clone supernatant, purified antibody solution) (20 μl/well) and incubated for 1 hour at 4° C. in a flow cytometry assay plate, before being washed with flow cytometry buffer. 10 μl/well of Alexafluor647-conjugated goat anti-species IgG Fc-specific F(ab′)2 fragment (Jackson ImmunoResearch), diluted 1:2500 in flow cytometry buffer, was added and incubated at 4° C. for 30 minutes, followed by washing with wash buffer. The fluorescence intensity was then measured on an iQue screener PLUS.
# (§2) Binding was quantified as fold change in fluorescence intensity geomean over background assessed by flow cytometry.
# [2] = target: Chinese variant CD1a protein (human) (UniProt P06126); assay: ELISA, 0.01 µg/ml antibody
# [3] = target: T1, human CD1a expressed on cells; assay: flow cytometry, MOLT4 cells, 0.0316 µg/ml antibody
# Description: (§3) CD1a-specific antibodies were identified by flow cytometry. Binding to proteins expressed on HEK, C1R and MOLT4 cell lines was assessed. […] The C1R-CD1a, C1R-empty vector and MOLT4 cell lines were washed in 1×PBS on the day required. All cell lines were counted and resuspended in 1×PBS and then stained for 30 minutes at 37° C. using the DiI or DiO cellular stains (Invitrogen). Cells were washed with flow cytometry buffer (1% bovine serum albumin, 2 mM EDTA and 0.1% sodium azide in PBS) before mixing 2 DiI-stained and DiO-stained populations together. The cells (20 μl/well) were then added to dilutions of antibody sample (B cell culture supernatant, TAP supernatant, clone supernatant, purified antibody solution) (20 μl/well) and incubated for 1 hour at 4° C. in a flow cytometry assay plate, before being washed with flow cytometry buffer. 10 μl/well of Alexafluor647-conjugated goat anti-species IgG Fc-specific F(ab′)2 fragment (Jackson ImmunoResearch), diluted 1:2500 in flow cytometry buffer, was added and incubated at 4° C. for 30 minutes, followed by washing with wash buffer. The fluorescence intensity was then measured on an iQue screener PLUS.
# as §2
# [4] = target: T2, human CD1a protein (pool B) (human, UniProt P06126 18-295, limits assumed); assay: ELISA, 100 µg/ml antibody
# T2 construct: Recombinant protein of the ELISA (coated) and the Biacore T200 titration; whole entry named; also called human CD1a pool B; full length CD1a
# Description: (§4) CD1a-specific antibodies were identified by ELISA. […] 20 μl/well of peroxidase-conjugated goat anti-species IgG Fc-specific F(ab′)2 fragment (Jackson ImmunoResearch), diluted 1:5000 in block buffer was added and incubated at room temperature for 1 hour, followed by washing with wash buffer.
# (§5) The antibodies were titrated through a dilution series and compared to a control rabbit IgG antibody.
# [5] = target: T3, human CD1d expressed on HEK-293 cells (human, UniProt P15813 20-335; P61769 21-119); assay: flow cytometry, HEK-293 cells, 31.6 µg/ml antibody
# T3 construct: also called HEK - CD1d
# Description: as §1
# (§6) HEK-293 cells were transiently transfected with human CD1a, CD1b, CD1c or CD1d and co-transfected with human β2M.
# [6] = target: T1, human CD1a expressed on cells; assay: flow cytometry, HEK-293 cells, 31.6 µg/ml antibody
# Description: as §1, §6
# [7] = target: T4, human CD1c expressed on HEK-293 cells (human, UniProt P29017 18-333; P61769 21-119); assay: flow cytometry, HEK-293 cells, 31.6 µg/ml antibody
# T4 construct: also called HEK - CD1c
# Description: as §1, §6
# [8] = target: T5, human CD1b expressed on HEK-293 cells (human, UniProt P29016 18-333; P61769 21-119); assay: flow cytometry, HEK-293 cells, 31.6 µg/ml antibody
# T5 construct: also called HEK - CD1b
# Description: as §1, §6
# [9] = target: Chinese variant CD1a protein (human) (UniProt P06126); assay: ELISA, 1 µg/ml antibody
# [10] = target: Chinese variant CD1a protein (human) (UniProt P06126); assay: ELISA, 10 µg/ml antibody
# [11] = target: T6, chimeric CD1a pool B protein [human CD1a lipid binding domain, mouse CD1d Ig domain] (human; mouse, UniProt P06126 18-201; P11609 205-297, limits assumed); assay: ELISA, 0.1 µg/ml antibody
# Description: as §4
# (§7) The antibodies were titrated through a dilution series and compared to a control rabbit IgG antibody. […] Data shown for purified antibodies.
# [12] = target: T3, human CD1d expressed on HEK-293 cells; assay: flow cytometry, HEK-293 cells
# Description: as §1, §6
# [13] = target: T4, human CD1c expressed on HEK-293 cells; assay: flow cytometry, HEK-293 cells
# Description: as §1, §6
# [14] = target: T5, human CD1b expressed on HEK-293 cells; assay: flow cytometry, HEK-293 cells
# Description: as §1, §6
# [15] = target: T2, human CD1a protein (pool B); assay: ELISA, 0.1 µg/ml antibody
# Description: as §4, §5
# [16] = target: T1, human CD1a expressed on cells; assay: flow cytometry, MOLT4 cells, 0.316 µg/ml antibody
# Description: as §3, §2
# [17] = target: T3, human CD1d expressed on HEK-293 cells; assay: flow cytometry, HEK-293 cells, 3.16 µg/ml antibody
# Description: as §1, §6
# [18] = target: T1, human CD1a expressed on cells; assay: flow cytometry, HEK-293 cells, 3.16 µg/ml antibody
# Description: as §1, §6
# [19] = target: T4, human CD1c expressed on HEK-293 cells; assay: flow cytometry, HEK-293 cells, 3.16 µg/ml antibody
# Description: as §1, §6
# [20] = target: T5, human CD1b expressed on HEK-293 cells; assay: flow cytometry, HEK-293 cells, 3.16 µg/ml antibody
# Description: as §1, §6
# [21] = target: T1, human CD1a expressed on cells; assay: flow cytometry, MOLT4 cells, 1 µg/ml antibody
# Description: as §3, §2
# [22] = target: T6, chimeric CD1a pool B protein [human …; assay: ELISA, 31.6 µg/ml antibody
# Description: as §4, §7
# [23] = target: T2, human CD1a protein (pool B); assay: ELISA, 0.316 µg/ml antibody
# Description: as §4, §5
# [24] = target: T1, human CD1a expressed on cells; assay: flow cytometry, MOLT4 cells, 10 µg/ml antibody
# Description: as §3, §2
# [25] = target: T3, human CD1d expressed on HEK-293 cells; assay: flow cytometry, HEK-293 cells, 1 µg/ml antibody
# Description: as §1, §6
# [26] = target: T1, human CD1a expressed on cells; assay: flow cytometry, HEK-293 cells, 1 µg/ml antibody
# Description: as §1, §6
# [27] = target: T4, human CD1c expressed on HEK-293 cells; assay: flow cytometry, HEK-293 cells, 1 µg/ml antibody
# Description: as §1, §6
# [28] = target: T5, human CD1b expressed on HEK-293 cells; assay: flow cytometry, HEK-293 cells, 1 µg/ml antibody
# Description: as §1, §6
# T2 sequence (P06126 18-295 limits assumed): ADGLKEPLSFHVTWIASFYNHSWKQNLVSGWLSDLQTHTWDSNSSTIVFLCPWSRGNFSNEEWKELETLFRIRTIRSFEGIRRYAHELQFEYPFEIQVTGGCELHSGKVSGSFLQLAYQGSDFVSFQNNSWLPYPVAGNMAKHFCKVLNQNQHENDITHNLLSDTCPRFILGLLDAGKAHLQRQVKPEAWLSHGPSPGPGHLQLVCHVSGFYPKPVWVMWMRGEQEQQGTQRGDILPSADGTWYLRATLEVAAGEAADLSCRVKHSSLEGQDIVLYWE
# Chain of Chinese variant CD1a protein (human) (P06126 18-295, change not shown): as the sequence (P06126 18-295 limits assumed) above
# T6 sequence (P06126 other isoform, or with tags, fused parts or gaps mutant limits assumed): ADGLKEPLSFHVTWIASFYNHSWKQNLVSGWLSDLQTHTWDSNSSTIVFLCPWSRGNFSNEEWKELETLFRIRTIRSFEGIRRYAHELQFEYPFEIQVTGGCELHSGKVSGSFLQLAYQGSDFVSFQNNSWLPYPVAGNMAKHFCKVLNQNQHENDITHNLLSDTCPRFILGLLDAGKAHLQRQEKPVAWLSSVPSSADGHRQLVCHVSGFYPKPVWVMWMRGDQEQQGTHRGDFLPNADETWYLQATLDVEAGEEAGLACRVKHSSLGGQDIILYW
binder,measurement,setting,value
B1,Fluorescence Intensity Geomean (normalized to background),[1],28.7 fold over background
same,Optical Density (OD),[2],1.47 OD
same,Fluorescence Intensity Geomean (normalized to background),[3],14.9 fold over background
same,Optical Density (OD),[4],1.15 OD
same,Fluorescence Intensity Geomean (normalized to background),[5],1 fold over background
same,Fluorescence Intensity Geomean (normalized to background),[6],5.6 fold over background
same,Fluorescence Intensity Geomean (normalized to background),[7],1 fold over background
same,Fluorescence Intensity Geomean (normalized to background),[8],1 fold over background
same,Optical Density (OD),[9],1.51 OD
same,Optical Density (OD),[10],1.51 OD
same,Optical Density (OD),[11],1.25 OD
same,binding result,[12],no binding (tested: 100 µg/ml (highest tested))
same,binding result,[13],no binding (tested: 100 µg/ml (highest tested))
same,binding result,[14],no binding (tested: 100 µg/ml (highest tested))
same,Optical Density (OD),[15],1.07 OD
same,Fluorescence Intensity Geomean (normalized to background),[16],29.6 fold over background
same,Fluorescence Intensity Geomean (normalized to background),[17],1.1 fold over background
same,Fluorescence Intensity Geomean (normalized to background),[18],21.9 fold over background
same,Fluorescence Intensity Geomean (normalized to background),[19],1.1 fold over background
same,Fluorescence Intensity Geomean (normalized to background),[20],1 fold over background
same,Fluorescence Intensity Geomean (normalized to background),[21],30.6 fold over background
same,Optical Density (OD),[22],1.35 OD
same,Optical Density (OD),[23],1.15 OD
same,Fluorescence Intensity Geomean (normalized to background),[24],11.7 fold over background
same,Fluorescence Intensity Geomean (normalized to background),[25],1 fold over background
same,Fluorescence Intensity Geomean (normalized to background),[26],48.2 fold over background
same,Fluorescence Intensity Geomean (normalized to background),[27],1.1 fold over background
same,Fluorescence Intensity Geomean (normalized to background),[28],1.1 fold over background
